Measured values reported in patent US9193963B2, “Mutant endoglucanase” (Toray Industries, Inc., priority 2011, dated 2015).
Changes are numbered by the printed parent chain.

B1: EGIa1 Wild-type: Ignisphaera aggregans-derived endoglucanase1, SEQ ID NO: 7, parent endoglucanase (protein)
chain: MNFFVKNGEIYKLDGATGKPKIIYLFGVNWFGFETRDYVVHGLWARNWVDMLQQIKSLGFNAIRLPFCTYSVQEGTMPNSNAINYNINPDLQGLTSIEIMEKIVAKANELGIYILLDYHRLGCDQIEPLWYSDQVSEQQFIDTWVSVAKRFAKYPNVIGADIRNEPWGATWGTDDPATDWRLAVEKVAPKILEVAPHWLIFVEGTYKTRPDIDERSWYPYYSYYVFWGENLRAVRYYPVRLPYEKIVYSPHTYGPDVFRQPYFDDPIFPENMRSIWMERFGYVKTELGYALVVGEFGGRYGHGGDPRDIIWQIKFVDWLIENRICNFFYWSWNANSGDTGGILKDDWTNIWEDKYQNLKRLMDYCSSIN
modifications: Ignisphaera aggregans EGIa1
B2: EGIa1 Mutant: mutant EGIa1, SEQ ID NO: 8; residue corresponding to 273rd tryptophan substituted with alanine (protein)
chain: B1 chain with W227A
modifications: Ignisphaera aggregans EGIa1 W227A
notes: residue corresponding to 273rd tryptophan substituted with alanine
B3: EGIa2 Wild-type: Ignisphaera aggregans-derived endoglucanase 2, SEQ ID NO: 13, parent endoglucanase (protein)
chain: MYREKSCGSTIMDVYYRARGTEIYIERKGVEKPLYIFGINWAGFEWRGRVVGGLHVRNWVEILQQIKSLGFNAIRIPFCAESVKPGVFPAPRTINYALNRDLIGLDSISIMEKIIAKAAELELYILLCFHNISCLIMEPLWYTPLFSEQQFIDTWIRVAKRFSRYWNVIGAELYNNPHGRLPPSYYYESGECATWGMGNPKTDWNLAAERIGRAVLEVAPHWLIIVKGTQLTNPRSDNVPLYPEATYWGENLRAVRDYPVNLPRDKLVYGVDIYGPDVYYMPYFNDPNIFPDKLYLIWDQNWGYVKKELGYPLIIAEFGGLYGRGDPRDVIWHQKLVEYMISNNICHWFYNALNPDNPSTAGLLENDWRTVREDKMALLRRAMDYCRERYGNI
modifications: Ignisphaera aggregans EGIa2
B4: EGIa2 Mutant: mutant EgIa2, SEQ ID NO: 14; residue corresponding to 273rd tryptophan substituted with alanine (protein)
chain: B3 chain with W248A
modifications: Ignisphaera aggregans EGla2 W248A
notes: as for B2

Legend:
[1] = Inhibition experiment with ferulic acid: degradation of phosphoric acid swollen cellulose; type: biochemical; settings: enzyme 0.5 μM, 1 hour, 50° C., parent at 0 mM = 100%
Experimental: This substance was diluted using buffer and water to obtain a 2 wt % mixture so that the final concentration of sodium acetate was 50 mM (pH 5.2). This was designated as phosphoric acid swollen cellulose and used for the following examples.
The activity of the wild-type and the mutant endoglucanases to degrade phosphoric acid swollen cellulose was measured in the presence of ferulic acid. 1% phosphoric acid swollen cellulose/50 mM acetate buffer (pH 5.2) was used as a substrate. Ferulic acid (Sigma Aldrich) was added at final concentrations of 0, 5, 10, and 15 mM. The enzymes prepared in Reference Example 1 and Example 2 were each added at a final concentration of 0.5 μM, followed by 1 hour of enzymatic reaction at 50° C.

[2] = Saccharification of lignocellulose 1 with Trichoderma reesei culture solution and endoglucanase; type: biochemical, Rice straw; settings: Lignocellulose 1, 24 hours; cellulase 1.0 mg/mL + endoglucanase 0.1 mg/mL + β-glucosidase (Novozyme 188) 0.01 mg/mL
In short: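 Substrate was liquid-ammonia-treated rice straw (1 h, 150 °C), suspended at 5 wt % in 50 mM acetate buffer pH 5.2 and hydrolysed for 24 h at 50 °C. Enzymes: T. reesei culture solution 1.0 mg/mL, mutant or wild-type endoglucanase 0.1 mg/mL, β-glucosidase 0.01 mg/mL. Glucose released was measured.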

[3] = Saccharification of lignocellulose 2 with Celluclast and endoglucanase; type: biochemical, Rice straw; settings: 5 wt % Lignocellulose 2, pH 5.2, 50° C., 24 hours; 1.0 mg/mL cellulase + 0.1 mg/mL endoglucanase
In short: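 Dilute-sulfuric-acid-pretreated rice straw (10 wt% solids, pH ~5) suspended at 5 wt% in 50 mM acetate buffer pH 5.2 was digested 24 h at 50 °C with 1.0 mg/mL Trichoderma reesei Celluclast plus 0.1 mg/mL mutant or wild-type endoglucanase; glucose released was measured.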

[4] = Saccharification of lignocellulose 1 with Celluclast and endoglucanase; type: biochemical, Rice straw; settings: 5 wt % Lignocellulose 1, pH 5.2, 50° C., 24 hours; 1.0 mg/mL cellulase + 0.1 mg/mL endoglucanase
In short: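 Rice straw pretreated with liquid ammonia (15 min room temperature, then 1 h at 150° C), suspended at 5 wt % in 50 mM acetate pH5.2. Hydrolysed at 50° C for 24 h with 1.0 mg/mL Trichoderma reesei cellulase plus 0.1 mg/mL mutant or wild-type endoglucanase; glucose measured.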

[5] = Activity to degrade phosphoric acid swollen cellulose; type: biochemical; settings: 1% phosphoric acid swollen cellulose, pH 5.2, enzyme 0.5 μM, 1 hour, 50° C.; glucose generated by each parent endoglucanase = 100%
In short: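 Enzyme added to phosphoric acid swollen cellulose in 50 mM acetate buffer, pH 5.2; 1 h reaction at 30–85 °C, stopped by pH change if needed. Glucose released measured by glucose kit; activity expressed relative to parent endoglucanase set at 100%.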

[6] = Inhibition experiment with vanillin: degradation of phosphoric acid swollen cellulose; type: biochemical; settings: enzyme 0.5 μM, 1 hour, 50° C., parent at 0 mM = 100%
[7] = Saccharification of lignocellulose 3 with Trichoderma reesei culture solution and endoglucanase; type: biochemical, Rice straw; settings: Lignocellulose 3, 24 hours; cellulase 1.0 mg/mL + endoglucanase 0.1 mg/mL + β-glucosidase (Novozyme 188) 0.01 mg/mL
In short: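 Hydrothermally treated rice straw (180 °C, 20 min, 10 MPa; solid fraction) suspended at 5 wt % in 50 mM acetate buffer pH 5.2, hydrolysed 24 h at 50 °C. Enzymes: T. reesei culture-solution cellulase 1.0 mg/mL, mutant or wild-type endoglucanase 0.1 mg/mL, β-glucosidase 0.01 mg/mL; glucose generated measured.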

[8] = Saccharification of lignocellulose 2 with Trichoderma reesei culture solution and endoglucanase; type: biochemical, Rice straw; settings: Lignocellulose 2, 24 hours; cellulase 1.0 mg/mL + endoglucanase 0.1 mg/mL + β-glucosidase (Novozyme 188) 0.01 mg/mL
In short: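 Dilute-sulfuric-acid-autoclaved rice straw (pH ~5) suspended at 5 wt % in 50 mM acetate pH 5.2, hydrolysed 24 h at 50 °C. Enzymes: T. reesei culture solution 1.0 mg/mL, mutant or wild-type endoglucanase 0.1 mg/mL, β-glucosidase 0.01 mg/mL. Glucose released was measured.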

[9] = Saccharification of lignocellulose 3 with Celluclast and endoglucanase; type: biochemical, Rice straw; settings: 5 wt % Lignocellulose 3, pH 5.2, 50° C., 24 hours; 1.0 mg/mL cellulase + 0.1 mg/mL endoglucanase
In short: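 Hydrothermally pretreated rice straw (180° C., 20 min) at 5 wt % in 50 mM acetate buffer pH 5.2 digested at 50° C. for 24 h with Celluclast 1.0 mg/mL plus mutant or wild-type endoglucanase 0.1 mg/mL. Released glucose measured over time.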

| Molecule | Relative activity to degrade phosphoric acid swollen cellulose ([1]; ferulic acid 0 mM) [%] | Relative activity to degrade phosphoric acid swollen cellulose ([1]; ferulic acid 5 mM) [%] | Relative activity to degrade phosphoric acid swollen cellulose ([1]; ferulic acid 10 mM) [%] | Relative activity to degrade phosphoric acid swollen cellulose ([1]; ferulic acid 15 mM) [%] | Concentration of glucose generated, Culture solution + Wild-type [2] [g/L] | Concentration of glucose generated, Celluclast + Wild-type [3] [g/L] | Concentration of glucose generated, Celluclast + Wild-type [4] [g/L] | Relative activity [5] [%] | Relative activity to degrade phosphoric acid swollen cellulose ([6]; vanillin 0 mM) [%] | Relative activity to degrade phosphoric acid swollen cellulose ([6]; vanillin 5 mM) [%] | Relative activity to degrade phosphoric acid swollen cellulose ([6]; vanillin 10 mM) [%] | Relative activity to degrade phosphoric acid swollen cellulose ([6]; vanillin 15 mM) [%] | Concentration of glucose generated, Culture solution + Wild-type [7] [g/L] | Concentration of glucose generated, Culture solution + Wild-type [8] [g/L] | Concentration of glucose generated, Celluclast + Wild-type [9] [g/L] | Concentration of glucose generated, Culture solution + Mutant [2] [g/L] | Concentration of glucose generated, Celluclast + Mutant [3] [g/L] | Concentration of glucose generated, Celluclast + Mutant [4] [g/L] | Concentration of glucose generated, Culture solution + Mutant [7] [g/L] | Concentration of glucose generated, Culture solution + Mutant [8] [g/L] | also measured |
| --- | --- | --- | --- | --- | --- | --- | --- | --- | --- | --- | --- | --- | --- | --- | --- | --- | --- | --- | --- | --- | --- |
| B1 | 100 | 55 | 50 | 50 | 8 | 12 | 11 | 100 | 100 | 60 | 55 | 40 | 8 | 9 | 11 | – | – | – | – | – | – |
| B2 | 100 | 100 | 100 | 95 | – | – | – | 100 | 100 | 100 | 100 | 95 | – | – | – | 12 | 15 | 15 | 12 | 12 | Concentration of glucose generated, Celluclast + Mutant [9]: 15 g/L |
| B3 | 100 | 60 | 60 | 55 | 8 | 11 | 11 | 100 | 100 | 50 | 45 | 40 | 8 | 8 | 11 | – | – | – | – | – | – |
| B4 | 100 | 95 | 90 | 90 | – | – | – | 100 | 100 | 95 | 90 | 90 | – | – | – | 13 | 16 | 16 | 11 | 13 | Concentration of glucose generated, Celluclast + Mutant [9]: 14 g/L |
